Data as given in patent US20140322225A1 (ADRENOMED, published 2014).

Key:
[1] = target: human recombinant adrenomedullin receptor (CRLR+RAMP3) (human); test: cell-based or functional assay
[2] = target: human adrenomedullin (hADM 1-52) (human); test: cell-based or functional assay
[3] = target: T1, human adrenomedullin (hADM 1-52) (human); test: SPR (Biacore 2000), antibody captured via anti-mouse Fc, adrenomedullin as analyte
T1 construct: 52 amino acids, aa 95-146 of pre-proADM; also called Human ADM 1-52
T1 sequence (peptide, as listed by the source): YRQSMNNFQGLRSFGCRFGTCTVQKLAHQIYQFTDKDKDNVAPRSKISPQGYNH
Protocol: Reversible immobilization of the antibodies was performed using an anti-mouse Fc antibody covalently coupled in high density to a CM5 sensor surface according to the manufacturer's instructions (mouse antibody capture kit; GE Healthcare). (Lorenz et al., “Functional Antibodies Targeting IsaA of Staphylococcus aureus Augment-lost Immune Response and Open New Perspectives for Antibacterial Therapy”; Antimicrob Agents Chemother. 2011 January; 55(1): 165-173.)

[4] = target: T1, human adrenomedullin (hADM 1-52); test: cell-based or functional assay; remark: listed apart in the source

Row | Binder | EC50 (read off the curve), cAMP formation [1] [nM] | IC50 (read off the curve), half of the antibody's own maximal inhibition of cAMP formation induced by 5.63 nM hADM [2] [µg/mL] | Kd [3] [nM] | fold stability of hADM in human citrate plasma with NT-H against hADM alone (7.8 h) [4] [fold]
1 | mouse adrenomedullin (mADM 1-50) (peptide) peptide: YRQSMNQGSRSNGCRFGTCTFQKLAHQIYQLTDKDKDGMAPRNKISPQGYNH | ~0.08 |  |  | 
2 | NT-H (antibody, V domains shown, also called NT-H antibody; antibody NT-H) VH: QVQLQQSGAELMKPGASVKISCKATGYTFSRYWIEWVKQRPGHGLEWIGEILPGSGSTNYNEKFKGKATITADTSSNTAYMQLSSLTSEDSAVYYCTEGYEYDGFDYWGQGTTLTVSS VL: DVLLSQTPLSLPVSLGDQATISCRSSQSIVYSNGNTYLEWYLQKPGQSPKLLIYRVSNRFSGVPDRFSGSGSGTDFTLKISRVEAEDLGVYYCFQGSHIPYTFGGGTKLEIK |  | ~2 | 5.9 | 2.3
